In paper PMC5508132:
Non-standard residues stand in square brackets, D forms with d. Groups on a side chain read outwards from the residue. No end group written: not given here. Phe(4-N3) = [N-]=[N+]=Nc1ccc(C[C@H](N)C(=O)O)cc1; ssDNA = not defined here

Target: integrin (of mouse fibroblasts, members not named for this experiment)
Conditions: scale: fold relative to the unmodified substrate

- area of fibroblasts on RGDS surfaces after 24 h, relative to the unmodified substrate: 6
Binder: [Phe(4-N3)]([DIBAC-ssDNA])GGRGDS-NH2 (reading uncertain; also: printed as F^az^GGRGDS) [RGDS P-DNA (F^azGGRGDS peptide conjugated to ssDNA)]
